The text below walks through data of publication PMC8860565, “Molecular Insights into How the Dimetal Center in Dihydropyrimidinase Can Bind the Thymine Antagonist 5-Aminouracil: A Different Binding Mode from the Anticancer Drug 5-Fluorouracil” (Bioinorganic Chemistry and Applications, 2022).

The data set concerns the molecule itself. Briefly: crystal structure; hanging drop vapor diffusion, room temperature, 16% PEG 8000, 100 mM HEPES, 200 mM calcium acetate, 200 μM 5-AU, pH 7.5; two monomers in the asymmetric unit.

B1: Pseudomonas aeruginosa dihydropyrimidinase (enzyme)
chain: MSLLIRGATVVTHEESYRADVLCANGLIQAIGENLETPSGCDVLDGGGQYLMPGGIDPHTHMQLPFMGTVASEDFFSGTAAGLAGGTTSIIDFVIPNPRQSLLEAFHTWRGWAQKSAADYGFHVAITWWSDEVAREMGELVAQHGVNSFKHFMAYKNAIMAADDTLVASFERCLELGAVPTVHAENGELVFHLQQKLLAQGLTGPEAHPLSRPPQVEGEAASRAIRIAETLGTPLYLVHISSREALDEIAYARAKGQPVYGEVLAGHLLLDDSVYRHPDWATAAGYVMSPPFRPVEHQEALWRGLQSGNLHTTATDHCCFCAEQKAMGRDDFSKIPNGTAGIEDRMALLWDAGVNSGRLSMHEFVALTSTNTAKIFNLFPRKGAIRVGADADLVLWDPQGSRTLSAATHHQRVDFNIFEGRTVRGIPSHTISQGKLLWAAGDLRAEPGAGRYVERPAYPSVYEVLGRRAERQRPVAVER
modifications: carbamylated Lys150 (Kcx150)
notes: dihydropyrimidinase of Pseudomonas aeruginosa (PaDHPase), wild type; Binuclear Zn centre (Znα, Znβ) in each monomer; also called PaDHPase; DHPase
As to B1, the binding result is reported as “binds”.
